Source: the supplement of paper PMC9170038

System: MS2 coat protein
Assay: apparent KD of MS2 coat protein; designed switch direction (-1 OFF switch, 1 ON switch): -1; higher = weaker reporter binding
How it was run: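 Normalised cluster fluorescence was curve-fitted, and each design's median over clusters is its apparent KD. Before this, SNAP-549-labelled MS2 coat protein was titrated from 0.7 or 1.5 nM, doubling to 3 µM, over RNA switches transcribed on Illumina chips by stalled E. coli RNA polymerase. Titrations had no input, 200 uM small-molecule ligand, or an oligonucleotide input, and steps lasted 0.8–1.5 h (lowest) to 10–20 min (highest).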

[1] = Eterna round: R95, input ligand: FMN 200 uM
[2] = Eterna round: R95, input ligand: microRNA oligo, concentration not stated
[3] = input ligand: microRNA oligo, concentration not stated
[4] = Eterna round: R95, input ligand: none

CCGAGGAAGCGGUCCUAUGACAUGAGGAUCACCCAUGUACCUCGCUACGAGCUUUUUGCUCGUCUUAUAAUUCUCGG [Mat - Sensor v3 - turn-off var 1 - JL Mod - D28] (puzzle: Sensor v3, turn-off variant 1)
apparent KD of MS2 coat protein [1]: 24.2 nM
apparent KD of MS2 coat protein [2]: 65.5 nM

CCGAUAAUGUAGGAUAUCGUAUCGGAGACGAUACGAGAAGGACAAACAUGAGGAUCACCCAUGUUCCUUAACGG [Mat - Exclusion 6 - Eli Mod - D74] (puzzle: Exclusion 6)
apparent KD of MS2 coat protein [2]: 13.5 nM

CCGCGACAUGAGGAUCACCCAUGUUAGGAUAUGUGCGCCAACCAAGGAAUUGGUAGGUACAGAAGGAGCUGGGU [Eternabot (L2) Solution 97] (Eterna round: R97, puzzle: Exclusion 1)
apparent KD of MS2 coat protein (input ligand: FMN 200 uM): 149 nM
apparent KD of MS2 coat protein (input ligand: none): 56.3 nM

CCGCGUACAGGAUAUCCAUCUGGAUCAGACAAGAUCCUGAUGGAGAAGGGACAUGAGGAUCACCCAUGUUGCGG [Mat - Exclusion 4 - Eli Mod - D54] (Eterna round: R97, puzzle: Exclusion 4)
apparent KD of MS2 coat protein (input ligand: FMN 200 uM): 19 nM
apparent KD of MS2 coat protein (input ligand: none): 19.3 nM

CCGCUACAUGAGGAUCACCCAUGUCAGGAUAUCGUACGUUCGUCGAAAGACGAUCGUACGAGAAGGGUGUGCGG [Eli x1 4.37] (Eterna round: R97, puzzle: Exclusion 1)
apparent KD of MS2 coat protein (input ligand: FMN 200 uM): 169 nM
apparent KD of MS2 coat protein (input ligand: none): 155 nM

CCGCUCCGUGUAGGAUAUCGGCGUGCCCUGCGCCGAGAAGGACAUGAGGAUCACCCAUGUAUGUUAUUAUCACGCGUGGCGCAC [Design 75] (Eterna round: R96, puzzle: Exclusion NG 1)
apparent KD of MS2 coat protein (input ligand: FMN 200 uM): 18.7 nM
apparent KD of MS2 coat protein [3]: 15 nM
apparent KD of MS2 coat protein (input ligand: none): 19.9 nM

CCGCUGUCAGGAUAUCGUGCAUACAACGAAAGUUCUAUGUGCGAGAAGGGACAUGAGGAUCACCCAUGUUUGCG [Omei Ex4 A20] (Eterna round: R97, puzzle: Exclusion 4)
apparent KD of MS2 coat protein (input ligand: FMN 200 uM): 41.3 nM
apparent KD of MS2 coat protein (input ligand: none): 28.2 nM

CCGGAAAGGAAGGAUAUGCUAGACGAGAGUCUAGCAGAAGGUCCUACAUGAGGAUCACCCAUGUGGUCCUCCGG [Mat - Exclusion 6 - Eli Mod - D34] (Eterna round: R97, puzzle: Exclusion 6)
apparent KD of MS2 coat protein (input ligand: FMN 200 uM): 252 nM
apparent KD of MS2 coat protein (input ligand: none): 1270 nM

CCGGAAAUGGAGGAUAUAGGAGUCGAUAGACACCUAGAAGGUCAUACAUGAGGAUCACCCAUGUGUCCUACCGG [Fiskers Ex 6 - 79] (puzzle: Exclusion 6)
apparent KD of MS2 coat protein [2]: 12.9 nM

CCGGAACAUGAGGAUCACCCAUGUCAGGAUAUCCCUAAAUCGUCGAUAGACGAUAAAAGGAGAAGGGACACCGG [Mat - Exclusion 1 - Eli Mod - D26] (Eterna round: R97, puzzle: Exclusion 1)
apparent KD of MS2 coat protein (input ligand: FMN 200 uM): 19.3 nM
apparent KD of MS2 coat protein (input ligand: none): 16.3 nM

CCGGCUUAGGAGGAUAUAGGAGUCGAUAGACACCUAGAAGGCCUAACAUGAGGAUCACCCAUGUGUCCUACCGG [Fiskers Ex 6 - 99] (puzzle: Exclusion 6)
apparent KD of MS2 coat protein [2]: 16.3 nM

CCGGUAAAGGAGGAUAUAGGAGUCGAUAGACACCUAGAAGGCCUGACAUGAGGAUCACCCAUGUGUCCUUCCGG [Fiskers Ex 6 - 94] (puzzle: Exclusion 6)
apparent KD of MS2 coat protein [2]: 16.8 nM

CCGUUCCGUGUAGGAUAUUGGCCUUCCUCGGGCCGAGAAGGACAUGAGGAUCACCCAUGUAUGCUAUUAUCGCGCGUGGCGCCC [Design 98] (Eterna round: R96, puzzle: Exclusion NG 1)
apparent KD of MS2 coat protein (input ligand: FMN 200 uM): 129 nM
apparent KD of MS2 coat protein [3]: 32.4 nM
apparent KD of MS2 coat protein (input ligand: none): 39.8 nM

CCUAGGUUAGGAUAUCUCGAUGUGGCAAAGGGUCCAUAUCGGGAGAAGGAACAUGAGGAUCACCCAUGUGGAGC [Eternabot (Original) Solution 42] (Eterna round: R97, puzzle: Exclusion 4)
apparent KD of MS2 coat protein (input ligand: FMN 200 uM): 159 nM
apparent KD of MS2 coat protein (input ligand: none): 57 nM

CCUCAACAGUAGGAUAUCAUAUAACUAUUGUGAUGAGAAGGACUGACAUGAGGAUCACCCAUGUUAACGUGAUA [Exclusion 6 - 5:b] (puzzle: Exclusion 6)
apparent KD of MS2 coat protein [2]: 17.3 nM

CCUCAACAGUAGGAUAUCAUCAAACUAUUGUGAUGAGAAGGACUGACAUGAGGAUCACCCAUGUUAACGUGAUA [Exclusion 6 - 6:a] (puzzle: Exclusion 6)
apparent KD of MS2 coat protein [1]: 38.9 nM
apparent KD of MS2 coat protein [2]: 38.4 nM
apparent KD of MS2 coat protein [4]: 44.9 nM

CCUCAACAUGAGGAUCACCCAUGUAAGGAUAUGUUGCAGAGCCUCGAGGUACCCGUCAACAGAAGGUAUAUAGA [Eternabot (L1) Solution 16] (Eterna round: R97, puzzle: Exclusion 1)
apparent KD of MS2 coat protein (input ligand: FMN 200 uM): 45.1 nM
apparent KD of MS2 coat protein (input ligand: none): 30.7 nM

CCUCACCGAGGAUAUACAUGAGGAUCACCCAUGUGAUCCUAAGGCUGAUCAAGCCUAUGUAGAAGGCGCAAAUC [salish99_ex3_r4_005] (Eterna round: R97, puzzle: Exclusion 3)
apparent KD of MS2 coat protein (input ligand: FMN 200 uM): 1010 nM
apparent KD of MS2 coat protein (input ligand: none): 765 nM

CCUCAGUAAGGAUAUCAGCUUAGGAGGUUGGUAAUGAGAGCUGAGAAGGUACAUGAGGAUCACCCAUGUUAGUU [JL Zatite mod 7] (puzzle: Exclusion 4)
apparent KD of MS2 coat protein [2]: 30.2 nM

CCUCAGUCACAGGAUAUGCUCAUCUAAUGAUGAGCAGAAGGGUGAACAUGAGGAUCACCCAUGUUUACGGUGGU [Omei Ex6 E8] (Eterna round: R97, puzzle: Exclusion 6)
apparent KD of MS2 coat protein (input ligand: FMN 200 uM): 122 nM
apparent KD of MS2 coat protein (input ligand: none): 328 nM

CCUCCACAGUAGGAUAUCAUCAAACUAUUGUGAUGAGAAGGACUGACAUGAGGAUCACCCAUGUUAACGUGAUG [Mod of Brourd 7 - Jieux - Exclusion 6] (Eterna round: R97, puzzle: Exclusion 6)
apparent KD of MS2 coat protein (input ligand: FMN 200 uM): 25.3 nM
apparent KD of MS2 coat protein (input ligand: none): 22.9 nM

CCUCCACAUGAGGAUCACCCAUGUCAGGAUAUCGUGUGUUUUUUUUCGGUCUUUCGUGCGAGAAGGGACGUCUG (puzzle: Exclusion 1)
apparent KD of MS2 coat protein [2]: 28.1 nM

CCUCGAAGGCAAGGAUAUCCUACAUUGUUCUGGCCCGGGCAUGCUACAUGAGGAUCACCCAUGUGGGAGAAGGUGCGCCACGGC [Design 30] (Eterna round: R96, puzzle: Exclusion NG 2)
apparent KD of MS2 coat protein (input ligand: FMN 200 uM): 56.7 nM
apparent KD of MS2 coat protein [3]: 45 nM
apparent KD of MS2 coat protein (input ligand: none): 58.3 nM

CCUCGACAUGAGGAUCACCCAUGUGAGGAUAUCAUAUUCAGACGAAAGGUGUUAGAGUUGAGAAGGCGCAUGUU [Eternabot (L1) Solution 51] (Eterna round: R97, puzzle: Exclusion 1)
apparent KD of MS2 coat protein (input ligand: FMN 200 uM): 44.1 nM
apparent KD of MS2 coat protein (input ligand: none): 28.3 nM

CCUCUACAUGAGGAUCACCCAUGUGAGGAUAUCCUGCGAGGAUCAAAAGAUCCUCGUGGGAGAAGGCAUAUGAU [Omei Ex1 A3] (Eterna round: R97, puzzle: Exclusion 1)
apparent KD of MS2 coat protein (input ligand: FMN 200 uM): 36.5 nM
apparent KD of MS2 coat protein (input ligand: none): 26.6 nM

CCUCUACAUGAGGAUCACCCAUGUGAGGAUAUGCGAGGCGCACUCGAUGAGCGCGCCGGUAGAAGGCAUGUGGU [Raraveries] (Eterna round: R96, puzzle: Exclusion 1)
apparent KD of MS2 coat protein (input ligand: FMN 200 uM): 67 nM
apparent KD of MS2 coat protein [3]: 29.8 nM
apparent KD of MS2 coat protein (input ligand: none): 41.9 nM

CCUCUACAUGAGGAUCACCCAUGUGAGGAUAUGUUGACGAGCCUGAAAAGGCUGGUCAACAGAAGGCAUAUGUA [Exclusion 1 (Mod 2 solution 16 by Eternabot)] (Eterna round: R97, puzzle: Exclusion 1)
apparent KD of MS2 coat protein (input ligand: FMN 200 uM): 40.3 nM
apparent KD of MS2 coat protein (input ligand: none): 18.9 nM

CCUGUACAUGAGGAUCACCCAUGUUAGGAUAUCUCGCCGUCGGCUUGCCGACGGUAUUAGAGAAGGGACAAGGG [JL Tixe mod 4] (puzzle: Exclusion 1)
apparent KD of MS2 coat protein [2]: 31 nM

CCUGUGUAAGGAUAUGCCUGGCCGUGAGGCCAGAUUGAAUAGCAGAAGGUACAUGAGGAUCACCCAUGUACGGG [jl-ex4-4.61 ViennaUCT mod] (Eterna round: R97, puzzle: Exclusion 4)
apparent KD of MS2 coat protein (input ligand: FMN 200 uM): 206 nM
apparent KD of MS2 coat protein (input ligand: none): 32.9 nM

CCUUAACAUGAGGAUCACCCAUGUGAGGAUAUGAUGCAGCAGUGGUCUACGCUGUGCAUCAGAAGGUACAUGGU (Eterna round: R96, puzzle: Exclusion 1)
apparent KD of MS2 coat protein (input ligand: FMN 200 uM): 291 nM
apparent KD of MS2 coat protein [3]: 35.9 nM
apparent KD of MS2 coat protein (input ligand: none): 44.5 nM

CCUUAACAUGAGGAUCACCCAUGUGAGGAUAUGAUGCAGCAGUGGUCUACGCUGUGCAUCAGAAGGUACAUGGU (puzzle: Exclusion 1)
apparent KD of MS2 coat protein [2]: 38.9 nM

CGAAAUGCCCGUGGCCACAAGCUUUUUGCUUGUCUUACUACAUGAGGAUCACCCAUGUACCAUGGGCUCCUGACCAU [Rixele] (puzzle: Sensor v3, turn-off variant 2)
apparent KD of MS2 coat protein [1]: 13.6 nM
apparent KD of MS2 coat protein [2]: 11.6 nM
apparent KD of MS2 coat protein [4]: 11.2 nM

CGACGUGGAGUGAGGAUAUCGUGUUCGAAAGAACGUGAGAAGGCACAUGAGGAUCACCCAUGUGAUUCACGUCG [Omei Ex4B A5] (Eterna round: R97, puzzle: Brourd's mod of Exclusion 4)
apparent KD of MS2 coat protein (input ligand: FMN 200 uM): 27.7 nM
apparent KD of MS2 coat protein (input ligand: none): 20.6 nM

CGAUAAAAGACAGGAUAUGAGGAGAGAGAGAGAUCAGAAGGGUCACAUGAGGAUCACCCAUGUGAGUUCUCGAUAAGAAAGAGG [Prohibition 52 - Jieux - Exclusion NG 1] (Eterna round: R96, puzzle: Exclusion NG 1)
apparent KD of MS2 coat protein (input ligand: FMN 200 uM): 19.3 nM
apparent KD of MS2 coat protein [3]: 14.6 nM
apparent KD of MS2 coat protein (input ligand: none): 21 nM

CGAUAGAUAGGAUAUAUAAUUGGAAUUCACCUUGGGCGGCUACAUGAGGAUCACCCAUGUAGAAGGGUCUUCGA [Eternabot (L1) Solution 80] (Eterna round: R97, puzzle: Exclusion 2)
apparent KD of MS2 coat protein (input ligand: FMN 200 uM): 16.3 nM
apparent KD of MS2 coat protein (input ligand: none): 18.5 nM

CGAUGACCGGUGAGGAUAUCGUGUUCGAAAGAACGUGAGAAGGCACAUGAGGAUCACCCAUGUGAUCCUCAUCG [Omei Ex4B A33] (Eterna round: R97, puzzle: Brourd's mod of Exclusion 4)
apparent KD of MS2 coat protein (input ligand: FMN 200 uM): 25.9 nM
apparent KD of MS2 coat protein (input ligand: none): 18.2 nM
